Tests used:
Format in all cases: cell-based
h D1 = target: T1, h D1 (Homo sapiens, UniProt P21728); experiment: Calcium mobilization (FLIPR, Fluo-3) in transfected COS-7 cells
T1 construct: expressed in transfected cells; host or cells: COS-7
Experimental: COS-7 cells were cultured in 225 cm^2 flasks in Dulbecco's Modified Eagle Medium (DMEM) with supplements (10% bovine calf serum, 4 mM glutamine, 100 units/ml penicillin and 100 μg/ml streptomycin) at 37° C., 5% CO2. Stock plates of COS-7 cells were trypsinized and split 1:6 every 3–4 days.
For evaluating the function of a single chimeric G protein, the standard cDNA transfection ratio was 1:1 (10 μg GPCR cDNA and 10 μg chimeric G protein cDNA). For evaluating the function of a mixture of chimeric G proteins, the standard cDNA transfection ratio was 8:1:1 (16 μg GPCR cDNA, 2 μg Gαq/z cDNA, 2 μg Gαq/s cDNA).
Twenty four hours after transient transfection, COS-7 cells were seeded into 96-well black wall microtiter plates coated with poly-D-lysine for assay the following day. […] After excess dye was discarded, cells were washed in assay buffer and layered with a final volume equal to 100 μl/well. Basal fluorescence was monitored in a fluorometric imaging plate reader (FLIPR™, Molecular Devices) with an excitation wavelength of 488 nm and an emission range of 500 to 560 nm. Laser excitation energy was adjusted so that basal fluorescence readings were approximately 10,000 relative fluorescent units. Cells were stimulated with agonists diluted in assay buffer (50 μl), and relative fluorescent units were measured at defined intervals (exposure=0.4 sec) over a 3 min period at room temperature. Maximum change in fluorescence was calculated for each well. Concentration-response curves derived from the maximum change in fluorescence were analyzed by nonlinear regression (Hill equation).

[1] = tested on: GALR1, Y1, NPFF2, and 5HT1D; experiment: Cl- current recording in Xenopus oocytes, C. elegans versus human chimera
Experimental: (§1) Oocytes were harvested from Xenopus laevis and injected with mRNA transcripts as previously described (Quick and Lester, 1994; Smith et al., 1997). Receptor and chimeric G protein α subunit RNA transcripts were synthesized using the T7 polymerase (“Message Machine,” Ambion) from linearized plasmids or PCR products containing the complete coding region of the genes. Oocytes were injected with 5–25 ng synthetic receptor RNA and incubated for 3–8 days at 17 degrees. Three to eight hours prior to recording, oocytes were injected with 500 pg chimeric Gα subunit mRNA. Dual electrode voltage clamp (Axon Instruments Inc.) was performed using 3 M KCl-filled glass microelectrodes having resistances of 1–2 MOhm. Unless otherwise specified, oocytes were voltage clamped at a holding potential of −80 mV. During recordings, oocytes were bathed in continuously flowing (1–3 ml/min) medium containing 96 mM NaCl, 2 mM KCl, 1.8 mM CaCl2, 1 mM MgCl2, and 5 mM HEPES, pH 7.5 (ND96). Drugs were applied by local perfusion from a 10 μl glass capillary tube fixed at a distance of 0.5 mm from the oocyte. Experiments were carried out at room temperature. All values are expressed as mean±standard error of the mean.

Rabbit 5HT1D = target: T2, Rabbit 5HT1D (Oryctolagus cuniculus, UniProt P49145); experiment: Cl- current recording in Xenopus oocytes expressing GPCR and chimeric G protein; settings: Xenopus oocytes expressing Rabbit 5HT1D and chimera; mean ± s.e.m
T2 construct: linearized plasmids or PCR products containing the complete coding region of the genes; expressed in transfected cells; host or cells: Xenopus laevis oocytes (receptor cRNA injected)
Experimental: as §1

Rat GALR1 = target: T3, Rat GALR1 (Rattus norvegicus, UniProt Q62805); experiment: as above; settings: Xenopus oocytes expressing Rat GALR1 and chimera; mean ± s.e.m
T3 construct: linearized plasmids or PCR products containing the complete coding region of the genes; expressed in transfected cells; host or cells: Xenopus laevis oocytes (receptor cRNA injected)
T3 sequence (Q62805 1-346): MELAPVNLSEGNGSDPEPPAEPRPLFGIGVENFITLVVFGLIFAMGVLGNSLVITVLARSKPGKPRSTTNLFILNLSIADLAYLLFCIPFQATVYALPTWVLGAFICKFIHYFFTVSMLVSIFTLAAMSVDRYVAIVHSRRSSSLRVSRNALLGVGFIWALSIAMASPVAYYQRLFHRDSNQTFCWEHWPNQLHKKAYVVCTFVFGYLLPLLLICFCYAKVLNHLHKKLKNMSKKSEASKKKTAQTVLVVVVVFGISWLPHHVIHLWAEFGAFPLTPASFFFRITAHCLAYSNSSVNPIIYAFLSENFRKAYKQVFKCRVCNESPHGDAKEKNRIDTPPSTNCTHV
Experimental: as §1

Rat Y1 = target: T4, Rat Y1 (Rattus norvegicus, UniProt P21555); experiment: as above; settings: Xenopus oocytes expressing Rat Y1 and chimera; mean ± s.e.m
T4 construct: linearized plasmids or PCR products containing the complete coding region of the genes; expressed in transfected cells; host or cells: Xenopus laevis oocytes (receptor cRNA injected)
T4 sequence (P21555 1-382): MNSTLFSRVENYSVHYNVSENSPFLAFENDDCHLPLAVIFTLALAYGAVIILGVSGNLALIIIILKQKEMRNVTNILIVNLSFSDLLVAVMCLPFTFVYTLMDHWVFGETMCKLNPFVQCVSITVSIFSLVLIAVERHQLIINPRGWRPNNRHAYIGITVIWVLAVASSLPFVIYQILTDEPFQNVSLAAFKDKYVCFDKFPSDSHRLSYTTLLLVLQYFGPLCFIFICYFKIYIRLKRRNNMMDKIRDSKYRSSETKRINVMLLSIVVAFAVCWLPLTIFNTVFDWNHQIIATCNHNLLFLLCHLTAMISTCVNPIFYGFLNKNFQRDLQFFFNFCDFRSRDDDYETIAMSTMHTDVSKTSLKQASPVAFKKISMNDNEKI
Experimental: as §1

Human NPFF2 = target: T5, Human NPFF2 (Homo sapiens, UniProt Q9Y5X5); experiment: as above; settings: Xenopus oocytes expressing Human NPFF2 and chimera; mean ± s.e.m
T5 construct: linearized plasmids or PCR products containing the complete coding region of the genes; expressed in transfected cells; host or cells: Xenopus laevis oocytes (receptor cRNA injected)
Experimental: as §1

Rat Y5 = target: T6, Rat Y5 (Rattus norvegicus, UniProt Q63634); experiment: as above; settings: Xenopus oocytes expressing Rat Y5 and chimera; mean ± s.e.m
T6 construct: linearized plasmids or PCR products containing the complete coding region of the genes; expressed in transfected cells; host or cells: Xenopus laevis oocytes (receptor cRNA injected)
T6 sequence (Q63634 1-445): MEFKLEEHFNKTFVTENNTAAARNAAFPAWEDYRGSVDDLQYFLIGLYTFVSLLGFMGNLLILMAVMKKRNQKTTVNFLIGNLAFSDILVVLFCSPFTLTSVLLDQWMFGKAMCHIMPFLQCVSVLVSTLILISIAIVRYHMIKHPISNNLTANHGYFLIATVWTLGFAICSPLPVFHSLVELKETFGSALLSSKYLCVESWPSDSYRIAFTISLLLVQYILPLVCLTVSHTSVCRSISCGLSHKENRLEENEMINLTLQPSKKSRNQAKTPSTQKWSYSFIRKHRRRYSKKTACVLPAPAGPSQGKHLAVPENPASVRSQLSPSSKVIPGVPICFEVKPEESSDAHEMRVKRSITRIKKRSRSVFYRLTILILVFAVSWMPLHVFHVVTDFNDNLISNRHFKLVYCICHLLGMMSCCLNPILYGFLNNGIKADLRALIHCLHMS
Experimental: as §1

T1 sequence (P21728 whole entry): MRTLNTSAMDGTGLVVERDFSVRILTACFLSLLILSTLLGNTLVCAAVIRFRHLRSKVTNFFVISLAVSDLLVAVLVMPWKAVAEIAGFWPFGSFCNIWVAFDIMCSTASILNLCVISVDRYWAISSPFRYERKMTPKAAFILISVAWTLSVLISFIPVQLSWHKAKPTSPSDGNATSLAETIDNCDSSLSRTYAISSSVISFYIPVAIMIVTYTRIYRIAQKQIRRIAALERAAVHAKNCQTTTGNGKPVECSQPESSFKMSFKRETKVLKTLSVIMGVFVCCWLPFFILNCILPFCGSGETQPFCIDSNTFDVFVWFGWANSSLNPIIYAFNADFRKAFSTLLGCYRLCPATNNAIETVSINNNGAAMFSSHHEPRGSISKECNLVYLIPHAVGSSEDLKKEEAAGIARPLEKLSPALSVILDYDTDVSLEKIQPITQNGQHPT
T2 sequence (P49145 whole entry): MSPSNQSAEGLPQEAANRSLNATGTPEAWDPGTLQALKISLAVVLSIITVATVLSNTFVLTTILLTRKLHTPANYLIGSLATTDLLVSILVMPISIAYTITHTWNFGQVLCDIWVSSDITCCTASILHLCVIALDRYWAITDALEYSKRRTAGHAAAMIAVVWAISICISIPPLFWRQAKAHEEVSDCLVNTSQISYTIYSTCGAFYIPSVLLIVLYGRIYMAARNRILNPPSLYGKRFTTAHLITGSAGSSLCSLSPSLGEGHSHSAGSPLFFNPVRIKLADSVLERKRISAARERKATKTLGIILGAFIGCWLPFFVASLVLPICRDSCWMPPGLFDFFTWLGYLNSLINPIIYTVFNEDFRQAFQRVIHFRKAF
T5 sequence (Q9Y5X5 103-522): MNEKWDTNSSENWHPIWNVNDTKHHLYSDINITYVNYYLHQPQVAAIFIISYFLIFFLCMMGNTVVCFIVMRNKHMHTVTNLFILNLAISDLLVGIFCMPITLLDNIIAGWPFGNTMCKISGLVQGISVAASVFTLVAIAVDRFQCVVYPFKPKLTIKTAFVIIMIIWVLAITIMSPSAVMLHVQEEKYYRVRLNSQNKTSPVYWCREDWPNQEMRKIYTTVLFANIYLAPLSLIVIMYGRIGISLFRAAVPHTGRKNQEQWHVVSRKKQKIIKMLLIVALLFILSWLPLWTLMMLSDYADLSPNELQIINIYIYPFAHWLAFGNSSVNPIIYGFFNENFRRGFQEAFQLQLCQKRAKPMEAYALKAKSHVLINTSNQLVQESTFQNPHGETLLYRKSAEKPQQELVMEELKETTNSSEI

B1: cGαq/z5: chimeric Gα subunit: C-terminal final 5 amino acids of C. elegans Gαq replaced with those of hGαz (SEQ ID NO: 1) (protein)
chain: MACCLSEEAREQKRINQEIEKQLQRDKRNARRELKLLLLGTGESGKSTFIKQMRIIHGQGYSEEDKRAHIRLVYQNVFMAIQSMIRAMDTLDIKFGNESEELQEKAAVVREVDFESVTSFEEPYVSYIKELWEDSGIQECYDRRREYQLTDSAKYYLSDLRRLAVPDYLPTEQDILRVRVPTTGIIEYPFDLEQIIFRMVDVGGQRSERRKWIHCFENVTSIMFLVALSEYDQVLVECDNENRMEESKALFRTIITYPWFTNSSVILFLNKKDLLEEKILYSHLADYFPEYDGPPRDPIAAREFILKMFVDLNPDADKIIYSHFTCATDTENIRFVFAAVKDTILQHNLKYIGLC
modifications: C. elegans
H D1; human D1 receptor in COS-7, dopamine 0.3 nM to 100 μM concentration-response curve, example shown, FIG. 4B
  maximal signal: 14,723 fluorescence units
H D1; human D1 receptors in COS-7, 10 μg chimera cDNA and 10 μg receptor cDNA, 100 μM dopamine, Table 9 parallel comparison, mean of two experiments
  MAXIMAL SIGNAL (FLUORESCENCE UNITS): 4832 fluorescence units
[1]
  increase in response over currents from oocytes expressing the human version of the chimera: 2–3 fold
Rabbit 5HT1D
  Response amplitudes (nA) in oocytes: 150 ± 105 nA
Rat GALR1
  Response amplitudes (nA) in oocytes: 91 ± 38 nA
Rat Y1
  Response amplitudes (nA) in oocytes: 1549 ± 168 nA
Human NPFF2
  Response amplitudes (nA) in oocytes: 1121 ± 261 nA

B2: cGαq/z9: C. elegans Gαq with Gαz portion of the C-terminal tail extended to 9 amino acids (SEQ ID NO: 2) (protein)
chain: MACCLSEEAREQKRINQEIEKQLQRDKRNARRELKLLLLGTGESGKSTFIKQMRIIHGQGYSEEDKRAHIRLVYQNVFMAIQSMIRAMDTLDIKFGNESEELQEKAAVVREVDFESVTSFEEPYVSYIKELWEDSGIQECYDRRREYQLTDSAKYYLSDLRRLAVPDYLPTEQDILRVRVPTTGIIEYPFDLEQIIFRMVDVGGQRSERRKWIHCFENVTSIMFLVALSEYDQVLVECDNENRMEESKALFRTIITYPWFTNSSVILFLNKKDLLEEKILYSHLADYFPEYDGPPRDPIAAREFILKMFVDLNPDADKIIYSHFTCATDTENIRFVFAAVKDTILQNNLKYIGLC
modifications: C. elegans
H D1; h D1 + chimera in COS-7, agonist DA, max 100 μM
  MAXIMAL SIGNAL (FLUORESCENCE UNITS): 13099 fluorescence units
Rabbit 5HT1D
  Response amplitudes (nA) in oocytes: 34 ± 12 nA
Rat Y1
  Response amplitudes (nA) in oocytes: 300 ± 177 nA
Rat Y5
  Response amplitudes (nA) in oocytes: 65 ± 34 nA
